In the Human Domainome abundance scans (Beltran et al. 2025):

B1: Ankyrin repeat and SOCS box protein 14, residues 532 to 572; numbered along this chain, A6NK59 (parent)
chain: RSLKHLCRLKIRKCMGRLHLRCPVFMSFLPLPNRLKAYVLY

Variants of: B1
Assay: abundance fitness (aPCA) (normalised: wild type 0, dead -1); higher = more abundant; growth selection in yeast, the domain comes from the species named
Details: Homo sapiens

Abundance fitness, by site and new letter:
Y41: S 0.356; H 0.12; W 0.072; C 0.146; M 0.257; N -0.052; G 0.368; T 0.169; R 0.373; V 0.398
L40: V -0.132; E 0.031; D -0.113; Q -0.192; P -0.405; R 0.055; S -0.092; T -0.247; G -0.312; A -0.075
V39: A -0.361; L -0.098; T -0.186; Q -1.3; G -0.743; S -0.779; D -0.95; W -0.43; I -0.022
A37: E 0.021; G -0.291; Q 0.083; R -0.002; C -0.091; P -0.995; W -0.502; L -0.404; M -0.207; S -0.143; V -0.482; H -0.118
K36: V -0.051; W -0.062; Y -0.335
Y38: E -0.599; W 0.295; S -0.436; L -0.346; K -0.485; R -0.446; H -0.535; A -0.343; M -0.454; C -0.622; V -0.558; P -0.731; I -0.293; G -0.59; T -0.478; Q -0.45; D -0.681
